# Experiment: soluble on expression in E. coli; label from the status in PepcDB or PDB records
row,Sequence,soluble on expression in E. coli
1,SLTPLSAITVRSMEGPPTVQQQSPSVIRQSPTQRRKTSTTSSTSRAPPPTNPDASSSSSSFAVPTIHFKESPFYKIQRLIPELVMNVEVTGGRGMCSAKFKLSKADYNLLSNPNSKHRLYLFSGMINPLGSRGNEPIQFPFPNELRCNNVQIKDNIRGFKSKPGTAKPADLTPHLKPYTQQNNVELIYAFTTKEYKLFGYIVEMITPEQLLEKVLQHPKIIKQATLLYLKKTLREDEEMGLTTTSTIMSLQCPISYTRMKYPSKSINCKHLQCFDALWFLHSQLQIPTWQCPVCQIDIALENLAISEFVDDILQNCQKNVEQVELTSDGKWTAILEDDDDSDSDSNDGSRSPEKGTLGEGAAALEHHHHHH,soluble
2,SLYIEMVDETGQVSKEMLQQTQEILEFAAQKLGKEDKEMAVTFVTNERSHELNLEYRDTDRPTDVISLEYKPELEIAFDEEDLLENPELAEMMSEFDAYIGELFISIDKAHEQAEEYGHSFEREMGFLAVHGFLHINGYDHYTPEEEAEMFGLQEEILTAYGLTRQ,soluble
3,SMCPGCGCGRIIHLGLGTEQVEAYVREHFPHARVDRMDRDTTARRGGHARILRKVAERQTDILIGTQMVAKGHDFPGITLVGILSVESTLNIPDYRSAERTFQLVTQLIGRAGRGDDPGRVLIQSLNP,not soluble
4,SMEEKLENEPDFQYIPEKAPLDSVHQDDHSLRESMIQLAEGLITGTVLTQFDQLYRKKPGMTMSCAKLPQNISKNRYRDISPYDATRVILKGNEDYINANYINMEIPSSSIINQYIACQGPLPHTCTDFWQMTWEQGSSMVVMLTTQVERGRVKCHQYWPEPTGSSSYGCYQVTCHSEEGNTAYIFRKMTLFNQEKNESRPLTQIQYIAWPDHGVPDDSSDFLDFVCHVRNKRAGKEEPVVVHCSAGIGRTGVLITMETAMCLIECNQPVYPLDIVRTMRDQRAMMIQTPSQYRFVCEAILKVYEEGFVKPLTTSTNKLT,soluble
5,SMEVARAARLAQIFKEICDGIISYKDSSRQALAAPLLNLPPKKKNADYYEKISDPLDLITIEKQILTGYYKTVEAFDADMLKVFRNAEKYYGRKSPVGRDVCRLRKAYYNARHEASAQIDEIVGET,soluble
6,SMFNNELMADVHFVVGPPGATRTVPAHKYVLAVGSSVFYAMFYGDLAEVKSEIHIPDVEPAAFLILLKYMYSDEIDLEADTVLATLYAAKKYIVPALAKACVNFLETSL,soluble
7,SMRPQPGDGERRYREASARKKIRLDRKYIVSCKQTEVPLSVPWDPSNQVYLSYNNVSSLKMLVAKDNWVLSSEISQVRLYTLEDDKFLSFHMEMVVHVDAAQAFLLLSDLRQRPEWDKHYRSVELVQQVDEDDAIYHVTSPALGGHTKPQDFVILASRRKPCDNGDPYVIALRSVTLPTHRETPEYRRGETLCSGFCLWREGDQLTKVSYYNQATPGVLNYVTTNVAGLSSEFYTTFKACEQFLLDNRNDLAPSLQTL,soluble
8,SMRYRQITIPRGKDGFGFTICCDSPVRVQAVDSGGPAERAGLQQLDTVLQLNERPVEHWKCVELAHEIRSCPSEIILLVWRMVPQVKPGPD,soluble
9,SNAEERLKMSTTTSTQDSGLLKVLLPPFEKKNNVKVDVIAVGTGQALKLGEAGDVDVVFVHARKLEDKFVADGFGVNRKDVMYNDFVIVGPKNDPAGIAKAKTAAEALKLLATKGATFISRGDKSGTHTKELDLWKSAGVDPKGNWYVEAGQGMGPVITMATERRAYTLTDRGTYNAFKGAKTDLVILFQGEKGLFNPYGIMAVNPKKFPHVKYDLAMKLIDYVTGPEGLKIISDY,soluble
10,SNAKNRLGTKALNFTYTLDSGVKGTLYQFPAEYTLLFINNPGCHACAEMIEGLKASPVINGFTAAKKLKVLSIYPDEELDEWKKHRNDFAKEWTNGYDKELVIKNKNLYDLRAIPTLYLLDKNKTVLLKDATLQKVEQYLAE,soluble
11,SNAMADKIKVGLLGYGYASKTFHAPLIMGTPGLELAGVSSSDASKVHADWPAIPVVSDPQMLFNDPSIDLIVIPTPNDTHFPLAQSALAAGKHVVVDKPFTVTLSQANALKEHADDAGLLLSVFHNRRWDSDFLTLKTLLAEGSLGNVVYFESHFDRYRPEIRQRWREQAGAGGGIWYDLGPHLLDQALQLFGLPETLNVDLGMLRPGSQSVDYFHAVLSYPGQRVVLHSTVLAAAETARYIVHGTQGSYIKFGVDPQEDRLKAGERLPQADWGYDMRDGIVTLSHDNVLTEKPLLTLPGNYPAYYAGIRDAIWGTAPNPVPATEAIKVMELIELGIASDQQKKALPIIAKN,soluble
12,SNAMKADILLVSHSKMITDGIKEMIEQMNASEEITIHSLGGTSDGSLGSDPMKIIDTINEADSDREFLIFADLGSAVLSSELAFDMLEEDQQKHYHLVDAPLVEGAFASAITAGVSDDLTQILAEAQNAGKKGWN,soluble
13,SNAMKEALATGSEAWWRTKTGPEWIREKDGNYRVTFWWRDPQGNETHSPIRRVWVYITGVTDHHQNAQPQTMARIAGTDVWRWSTALSANWRGSYCFIPTERDDVFAAFAPGETPDRNVLREGWRQLLPQAIADPLNSQSWRGGRGHAVSALEMPDAPLQPGWDRPETPYSPPLMMQWHSERLGNSRRVWILTTGDEAPEERPLAILLDGQFWAENMPVWPALASLTHQRLLPGAVYLLIDAIDTQHRSQELPCNADFWLAVQQELLPQVRAVTPFSDDAGRTVVAGQSFGGLSALYAGLNWPTRFGCVLSQSGSFWWPHRITPPEGEVITRLKTGALCARGLRIVLEAGVREPIVFQANQALYAQLNTSQQSIFWRQVDGGHDALCWRGGLTQGLMLLWQPLIDTL,soluble
14,SNAMKIVIAPDSYKESLSALEVATAIEQGFREIWPDADYLKLPLADGGEGTVEAMVEATAGRIVHVEVTGPLGHRVNAFYGLSGDARSAFIEMAAASGLEQVPPAQRDPLKTTSWGTGELIRHALDAGVEHIIIGIGGSATNDGGAGMVQALGARLRDAQGNDIAQGGIGLETLASIDISGLDKRLSACHIEVACDVTNPLTGKEGASAVFGPQKGATPEMIERLDTALTRYAHLIARDLHVDVLDLAGGGAAGGMGAALYAFCGAQLRRGIEIVTDALHLEACLADADLVITGEGRIDSQTIHGKVPIGVANIAKRYNKPVIGIAGSLTADVSVVHEHGLDAVFSVIYTICTLEDALKNASENVRMTARNVAATLKAGQQLR,soluble
15,SNAMKLYIYDHCPFCVKARMIFGLKNIPVELNVLQNDDEATPTRMIGQKMVPILQKDDSRYLPESMDIVHYVDNLDGKPLLTGKRNPAIEEWLRKVNGYVNQLLLPRFAKSAFDEFSTPAARQYFIRKKEASSGSFDNHLAHSAGLIKKIGDDLRLLDKLIVQPNAVNGELSEDDIHLFPLLRNLTLVAGIHWPTKVADYRDNMAKQTQINLLSSMAI,soluble
16,SNAMKPENKIPVLTRLSDEMTAVVNFQQPGLPPWPADGDIETQRQYYLLERRFWNADAPSMTTRTCAVPTPYGDVTTRLYSPQPTSQATLYYLHGGGFILGNLDTHDRIMRLLARYTGCTVIGIDYSLSPQARYPQAIEETVAVCSYFSQHADEYSLNVEKIGFAGDSAGAMLALASALWLRDKHIRCGNVIAILLWYGLYGLQDSVSRRLFGGAWDGLTREDLDMYEKAYLRNDEDRESPWYCLFNNDLTRDVPPCFIASAEFDPLIDDSRLLHQTLQAHQQPCEYKMYPGTLHAFLHYSRMMTIADDALQDGARFFMARMKTPR,soluble
17,SNAMKRSIEDTPIVLIGAGNLATNLAKALYRKGFRIVQVYSRTEESARELAQKVEAEYTTDLAEVNPYAKLYIVSLKDSAFAELLQGIVEGKREEALMVHTAGSIPMNVWEGHVPHYGVFYPMQTFSKQREVDFKEIPFFIEASSTEDAAFLKAIASTLSNRVYDADSEQRKSLHLAAVFTCNFTNHMYALAAELLKKYNLPFDVMLPLIDETARKVHELEPKTAQTGPAIRYDENVIGNHLRMLADDPAMQRLYELLSRSIHERQ,soluble
18,SNAMKTEKDKMLAGEMYIADDEELVADRVEAKRLTRLYNEAVETGDERRFTLLNQLLGSSADGKAQINPDFRCDYGYNIHVGKSFFANFNCVILDVCEVRIGDHCMFAPGVHIYTATHPLHPVERNSGKEYGKPVKIGNNVWVGGGAIINPGVSIGDNAVIASGAVVTKDVPNNVVVGGNPAKVIKTIEE,soluble

# Source: the DeepSol protein solubility set
